# T1: MBP-tagged Mus musculus SPO11 (Mus musculus, UniProt Q9WTK8 1-396)
# T1 construct: SPO11, Mus musculus; expected molecular mass of MBP–SPO11 87.4 kDa; active-site tyrosines Y137 and Y138; also called MBP–SPO11; mouse SPO11; source: baculovirus-infected Sf9 insect cells, purified (amylose, Superdex 200, cation exchange); for the complex co-expressed with TOP6BL and purified (Ni-NTA, amylose, Superdex 200); not shown: MBP, N-terminal, kept
# T1 sequence (looked up): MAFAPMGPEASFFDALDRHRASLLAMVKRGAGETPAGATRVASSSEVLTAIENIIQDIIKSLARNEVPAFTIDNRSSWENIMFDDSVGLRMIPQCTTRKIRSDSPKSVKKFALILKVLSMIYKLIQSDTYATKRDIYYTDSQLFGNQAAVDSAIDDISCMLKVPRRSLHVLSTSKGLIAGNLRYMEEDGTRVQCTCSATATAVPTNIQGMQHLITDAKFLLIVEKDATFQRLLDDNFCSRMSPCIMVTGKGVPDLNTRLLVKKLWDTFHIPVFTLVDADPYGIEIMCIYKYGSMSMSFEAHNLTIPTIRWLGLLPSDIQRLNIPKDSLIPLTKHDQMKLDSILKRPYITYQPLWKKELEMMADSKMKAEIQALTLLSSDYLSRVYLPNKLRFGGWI
# T2: MBP-SPO11;TOP6BL (Mus musculus;Mus musculus, UniProt Q9WTK8;J3QMY9 1-396;1-579, |)
# T2 sequence 1: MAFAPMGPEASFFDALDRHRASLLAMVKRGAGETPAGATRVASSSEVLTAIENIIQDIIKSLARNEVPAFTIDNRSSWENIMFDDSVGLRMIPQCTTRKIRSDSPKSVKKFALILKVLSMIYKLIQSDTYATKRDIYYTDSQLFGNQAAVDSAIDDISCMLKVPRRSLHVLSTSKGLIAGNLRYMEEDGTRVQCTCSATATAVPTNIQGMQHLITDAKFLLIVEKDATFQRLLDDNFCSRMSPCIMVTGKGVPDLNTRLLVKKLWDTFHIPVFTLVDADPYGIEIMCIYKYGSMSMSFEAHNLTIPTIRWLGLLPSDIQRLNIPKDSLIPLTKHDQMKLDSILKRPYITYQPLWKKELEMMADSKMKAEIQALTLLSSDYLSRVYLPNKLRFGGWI
# T2 sequence 2: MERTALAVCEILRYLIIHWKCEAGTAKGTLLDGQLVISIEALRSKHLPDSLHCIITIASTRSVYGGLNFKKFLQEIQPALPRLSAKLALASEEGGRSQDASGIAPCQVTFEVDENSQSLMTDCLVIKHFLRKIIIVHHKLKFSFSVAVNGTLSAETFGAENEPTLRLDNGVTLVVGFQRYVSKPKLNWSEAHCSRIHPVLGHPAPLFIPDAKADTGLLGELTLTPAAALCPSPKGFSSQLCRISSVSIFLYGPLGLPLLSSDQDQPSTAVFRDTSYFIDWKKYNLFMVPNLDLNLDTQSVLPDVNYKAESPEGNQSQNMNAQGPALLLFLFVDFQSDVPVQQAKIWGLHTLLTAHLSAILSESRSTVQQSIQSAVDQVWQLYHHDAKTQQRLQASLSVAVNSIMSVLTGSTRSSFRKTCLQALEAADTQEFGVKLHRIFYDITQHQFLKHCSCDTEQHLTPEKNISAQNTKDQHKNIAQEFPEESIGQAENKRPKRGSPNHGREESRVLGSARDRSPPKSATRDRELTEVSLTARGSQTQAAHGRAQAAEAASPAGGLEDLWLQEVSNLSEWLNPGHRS
# What was measured:
# [1] = target: T1, MBP-tagged Mus musculus SPO11; test: SEC-MALS; co-expressed and co-purified MBP–SPO11 and His–Flag TOP6BL complex (Ni-NTA, amylose, Superdex 200); Superdex 200 increase 10/300 GL; 25 mM HEPES-NaOH pH 7.5, 500 mM NaCl, 10% glycerol, 5 mM EDTA, 2 mM DTT; conditions: both partners purified
# MBP-SPO11;TOP6BL = target: T2, MBP-SPO11;TOP6BL; test: EMSA; 5 mM EDTA, 0.1 nM DNA; EMSA: 25 mM Tris-HCl pH 7.5, 7.5% glycerol, 50 mM NaCl, 2 mM DTT, 5 mM EDTA, 1 mg/ml BSA, 37 C, 30 min; 0.1 nM labelled hairpin or 100 ng plasmid in 20 µl; conditions: protein: recombinant;recombinant; tags: MBP;His-Flag; copies: 1;1; label: 5' 32P; hairpin, 2-nt 5' overhang
stoichiometry N [1],Binder,binding result (MBP-SPO11;TOP6BL)
1,"His–Flag-tagged Mus musculus TOP6BL (natural protein, UniProt J3QMY9 1-579, looked up, TOP6BL (topo VIB-like subunit), Mus musculus; also called His–mTOP6BL–Flag; mTOP6BL; not shown: His, N-terminal, kept; Flag, C-terminal, kept) MERTALAVCEILRYLIIHWKCEAGTAKGTLLDGQLVISIEALRSKHLPDSLHCIITIASTRSVYGGLNFKKFLQEIQPALPRLSAKLALASEEGGRSQDASGIAPCQVTFEVDENSQSLMTDCLVIKHFLRKIIIVHHKLKFSFSVAVNGTLSAETFGAENEPTLRLDNGVTLVVGFQRYVSKPKLNWSEAHCSRIHPVLGHPAPLFIPDAKADTGLLGELTLTPAAALCPSPKGFSSQLCRISSVSIFLYGPLGLPLLSSDQDQPSTAVFRDTSYFIDWKKYNLFMVPNLDLNLDTQSVLPDVNYKAESPEGNQSQNMNAQGPALLLFLFVDFQSDVPVQQAKIWGLHTLLTAHLSAILSESRSTVQQSIQSAVDQVWQLYHHDAKTQQRLQASLSVAVNSIMSVLTGSTRSSFRKTCLQALEAADTQEFGVKLHRIFYDITQHQFLKHCSCDTEQHLTPEKNISAQNTKDQHKNIAQEFPEESIGQAENKRPKRGSPNHGREESRVLGSARDRSPPKSATRDRELTEVSLTARGSQTQAAHGRAQAAEAASPAGGLEDLWLQEVSNLSEWLNPGHRS",–
–,"TAGCAATGTAATCGTCTATGACGTTAACGTCATAGACGATTACATTGC (structured_DNA) [cb957 hairpin, 25 bp, 2-nt 5' overhang]",binds

# Reference: article PMC11922746, “SPO11 dimers are sufficient to catalyse DNA double-strand breaks in vitro” (Nature, 2024)
